Results on seven molecules are retold here after PMC10954479 (Nucleic Acids Research, 2024).

T1: HDAC4GRD (residues 62–192) F93D mutant (human, UniProt P56524 62-192, F93D)
T1 sequence: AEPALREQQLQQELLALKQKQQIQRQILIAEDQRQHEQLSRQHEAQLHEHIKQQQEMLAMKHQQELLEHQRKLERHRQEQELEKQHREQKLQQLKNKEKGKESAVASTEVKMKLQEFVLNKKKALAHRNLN

B1: human HDAC4 glutamine-rich domain (HDAC4GRD, residues 62–192), wild type (domain or fragment)
chain: T1 sequence with D32F
B2: HDAC4GRD (residues 62–192) H109D mutant (domain or fragment)
chain: T1 sequence with D32F, H48D
B3: human MEF2A MADS-box/MEF2s domain (residues 1–95) (domain or fragment)
chain: MGRKKIQITRIMDERNRQVTFTKRKFGLMKKAYELSVLCDCEIALIIFNSSNKLFQYASTDMDKVLLKYTEYNEPHESRTNSDIVEALNKKEHRG
B4: Site-1 DNA (dsDNA)
DNA 1: GGGAAAGTTTCTATTATTAGCAGAGATA
DNA 2: TATCTCTGCTAATAATAGAAACTTTCCC
B5: Site-2 DNA (dsDNA)
DNA 1: CTAAGCAAATGAGATGAATATGCAGGGCACCATGCTAAAAATAAAATGGTTTCATGGTGCTAGTGAGGAAGGAA
DNA 2: TTCCTTCCTCACTAGCACCATGAAACCATTTTATTTTTAGCATGGTGCCCTGCATATTCATCTCATTTGCTTAG
B6: 28 bp EMSA DNA (dsDNA)
DNA 1: GGGAAAGTTTCTATTATTAGCAGAGATA
DNA 2: TATCTCTGCTAATAATAGAAACTTTCCC
B7: 15 bp crystallization DNA (dsDNA)
DNA 1: AAACTATTTATAAGA
DNA 2: TCTTATAAATAGTTT

Where a chain is given by its changes, count along the chain named. Names may count otherwise.

The data set “crystal structure” deals with the molecule itself. Description: crystal structure.
The data set “SEC” deals with the molecule itself. Description: SEC. (In general: SEC sorts molecules by how far they enter the pores of the column.)
Data set [1] addresses T1, HDAC4GRD (residues 62–192) F93D mutant. Description: native gel or EMSA.
Data set [2] concerns the target B2. Description: native gel or EMSA. Background: In EMSA bound probe runs differently from free probe, usually more slowly.
Data set [3] has as its target T2, MEF2A1-95;HDAC4GRD WT (Homo sapiens;Homo sapiens, UniProt Q02078;P56524 1-95;62-192, |). Description: pull-down.
For data set [4], the target named is T2, MEF2A1-95;HDAC4GRD WT. Description: pull-down. The source holds these as a separate data set.
Data set [5] concerns the target T3, MEF2A1-95;HDAC4GRD H109D (Homo sapiens;Homo sapiens, UniProt Q02078;P56524 1-95;62-192, |H109D). Briefly: pull-down.
In data set [6] the target is T2, MEF2A1-95;HDAC4GRD WT. Description: EMSA.
For data set [7], the target named is T3, MEF2A1-95;HDAC4GRD H109D. Briefly: EMSA.
The target of a further data set is MEF2A1-95;HDAC4GRD F93D (Homo sapiens;Homo sapiens, UniProt Q02078;P56524 1-95;62-192, |F93D). Briefly: EMSA.
For data set [8], the target named is T2, MEF2A1-95;HDAC4GRD WT. Description: X-ray crystallography.

What is called stoichiometry N is the number of molecules, sites or subunits per partner or assembly. Regarding B1, the “stoichiometry N” value in the data set “crystal structure” was 2. Turning to B2, the binding result in the data set “SEC” is “binds”.

With B3, the “stoichiometry N” value in “crystal structure” is 2. For the same molecule, the binding result in data set [1] and in data set [2] was “binds” in each case. On to B4, for which the binding result in the data set with MEF2A1-95;HDAC4GRD WT [3] was “binds”. As to B5, the binding result in the data set with MEF2A1-95;HDAC4GRD WT [4] and in the data set with MEF2A1-95;HDAC4GRD H109D [5] was “binds” each time. Regarding B6, the binding result in the data set with MEF2A1-95;HDAC4GRD WT [6], with MEF2A1-95;HDAC4GRD H109D [7] and in the data set with MEF2A1-95;HDAC4GRD F93D was “binds” throughout. In the case of B7, the binding result with MEF2A1-95;HDAC4GRD WT [8] is listed as “binds”.
